We go through 94 variants from the supplement of paper PMC10567573.

The labels stand for the following.
B1: ATL3 (parent)
chain: QELEEEIKELYENFCKHNGSKNVF
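Note: lentivirally expressed fusions sorted by FACS into six bins by GFP to DsRed ratio, PSI derived from sequencing read proportions per bin multiplied by bin number.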

This data set covers variants of B1. Kind of data set: protein stability index of a GFP-peptide fusion (GPS, HEK-293T) (PSI 1-6); higher = more stable. The note with it: c terminus: a fixed tail appended.
For QELEEEIKELKENFCKHNGSKNVF [Y11K], the protein stability index was 4.88.

QELEEEIKELMENFCKHNGSKNVF [Y11M]: the protein stability index came to 3.96.

Take QELEEEIKELEENFCKHNGSKNVF [Y11E]: the protein stability index came out at 4.54.

In the case of QELEEEIKELCENFCKHNGSKNVF [Y11C], the protein stability index came to 4.16.

Turning to QELEEEIKELAENFCKHNGSKNVF [Y11A], the protein stability index came out at 4.25.

Consider QELEEEIKELNENFCKHNGSKNVF [Y11N], for which the protein stability index was determined as 4.68.

Turning to QELEEEIKELTENFCKHNGSKNVF [Y11T], the protein stability index worked out at 4.3.

In the case of QELEEEIKELGENFCKHNGSKNVF [Y11G], the protein stability index was determined as 4.74.

For QELEEEIKELDENFCKHNGSKNVF [Y11D], the protein stability index stood at 5.09.

Take QELEEEIKELRENFCKHNGSKNVF [Y11R]: the protein stability index came to 4.39.

Regarding QELEEEIKELVENFCKHNGSKNVF [Y11V], the protein stability index amounted to 3.93.

Turning to QELEEEIKELQENFCKHNGSKNVF [Y11Q], the protein stability index was 4.58.

In the case of QELEEEIKELWENFCKHNGSKNVF [Y11W], the protein stability index is 2.96.

Consider QELEEEIKELHENFCKHNGSKNVF [Y11H], for which the protein stability index amounted to 4.46.

Regarding QELEEEIKELIENFCKHNGSKNVF [Y11I], the protein stability index was 3.64.

On to QELEEEIKELSENFCKHNGSKNVF [Y11S], for which the protein stability index is 4.61.

On to QELEEEIKELPENFCKHNGSKNVF [Y11P], for which the protein stability index was found to be 5.15.

For QELEEEIKELLENFCKHNGSKNVF [Y11L], the protein stability index was determined as 3.61.

QELEEEIKELFENFCKHNGSKNVF [Y11F]: the protein stability index was 2.64.

For QELEEEIKELYESFCKHNGSKNVF [N13S], the protein stability index stood at 2.6.

For QELEEEIKELYEEFCKHNGSKNVF [N13E], the protein stability index came out at 2.11.

For QELEEEIKELYEFFCKHNGSKNVF [N13F], the protein stability index was found to be 2.72.

QELEEEIKELYERFCKHNGSKNVF [N13R]: the protein stability index stood at 2.55.

Regarding QELEEEIKELYEDFCKHNGSKNVF [N13D], the protein stability index was found to be 3.15.

As for QELEEEIKELYEMFCKHNGSKNVF [N13M], the protein stability index was 1.79.

As for QELEEEIKELYEVFCKHNGSKNVF [N13V], the protein stability index is 2.89.

As for QELEEEIKELYETFCKHNGSKNVF [N13T], the protein stability index worked out at 2.86.

Regarding QELEEEIKELYEAFCKHNGSKNVF [N13A], the protein stability index was 1.72.

With QELEEEIKELYEWFCKHNGSKNVF [N13W], the protein stability index was 2.37.

Take QELEEEIKELYEYFCKHNGSKNVF [N13Y]: the protein stability index was 2.34.

As to QELEEEIKELYEQFCKHNGSKNVF [N13Q], the protein stability index was 2.13.

Consider QELEEEIKELYEHFCKHNGSKNVF [N13H], for which the protein stability index was determined as 2.83.

On to QELEEEIKELYELFCKHNGSKNVF [N13L], for which the protein stability index worked out at 1.83.

As for QELEEEIKELYEKFCKHNGSKNVF [N13K], the protein stability index turned out to be 2.15.

With QELEEEIKELYEPFCKHNGSKNVF [N13P], the protein stability index came to 3.73.

For the variant QELEEEIKELYEIFCKHNGSKNVF [N13I], the protein stability index turned out to be 2.13.

In the case of QELEEEIKELYECFCKHNGSKNVF [N13C], the protein stability index worked out at 2.26.

In the case of QELEEEIKELYEGFCKHNGSKNVF [N13G], the protein stability index stood at 3.76.

Turning to QELEEEIKELYENHCKHNGSKNVF [F14H], the protein stability index was determined as 4.07.

For QELEEEIKELYENWCKHNGSKNVF [F14W], the protein stability index worked out at 2.58.

QELEEEIKELYENLCKHNGSKNVF [F14L]: the protein stability index was found to be 3.27.

Take QELEEEIKELYENYCKHNGSKNVF [F14Y]: the protein stability index turned out to be 3.53.

Turning to QELEEEIKELYENRCKHNGSKNVF [F14R], the protein stability index is 4.1.

For QELEEEIKELYENNCKHNGSKNVF [F14N], the protein stability index is 4.55.

In the case of QELEEEIKELYENCCKHNGSKNVF [F14C], the protein stability index stood at 3.75.

For the variant QELEEEIKELYENTCKHNGSKNVF [F14T], the protein stability index stood at 3.69.

On to QELEEEIKELYENACKHNGSKNVF [F14A], for which the protein stability index was found to be 4.29.

For the variant QELEEEIKELYENICKHNGSKNVF [F14I], the protein stability index turned out to be 3.16.

QELEEEIKELYENVCKHNGSKNVF [F14V]: the protein stability index is 3.53.

With QELEEEIKELYENGCKHNGSKNVF [F14G], the protein stability index came to 4.42.

Take QELEEEIKELYENMCKHNGSKNVF [F14M]: the protein stability index amounted to 4.06.

Take QELEEEIKELYENDCKHNGSKNVF [F14D]: the protein stability index amounted to 4.46.

With QELEEEIKELYENPCKHNGSKNVF [F14P], the protein stability index came out at 4.37.

In the case of QELEEEIKELYENSCKHNGSKNVF [F14S], the protein stability index was 4.58.

Consider QELEEEIKELYENQCKHNGSKNVF [F14Q], for which the protein stability index was determined as 4.49.

Take QELEEEIKELYENECKHNGSKNVF [F14E]: the protein stability index stood at 5.25.

On to QELEEEIKELYENKCKHNGSKNVF [F14K], for which the protein stability index was 4.5.

Consider QELEEEIKELYANFCKHNGSKNVF [E12A], for which the protein stability index was 2.37.

In the case of QELEEEIKELYTNFCKHNGSKNVF [E12T], the protein stability index stood at 2.83.

QELEEEIKELYINFCKHNGSKNVF [E12I]: the protein stability index was 2.27.

As for QELEEEIKELYHNFCKHNGSKNVF [E12H], the protein stability index stood at 2.81.

In the case of QELEEEIKELYNNFCKHNGSKNVF [E12N], the protein stability index is 2.53.

On to QELEEEIKELYYNFCKHNGSKNVF [E12Y], for which the protein stability index worked out at 2.03.

QELEEEIKELYWNFCKHNGSKNVF [E12W]: the protein stability index was 1.98.

In the case of QELEEEIKELYLNFCKHNGSKNVF [E12L], the protein stability index amounted to 2.12.

Turning to QELEEEIKELYCNFCKHNGSKNVF [E12C], the protein stability index amounted to 2.35.

For QELEEEIKELYDNFCKHNGSKNVF [E12D], the protein stability index came to 2.89.

With QELEEEIKELYVNFCKHNGSKNVF [E12V], the protein stability index stood at 2.42.

For the variant QELEEEIKELYKNFCKHNGSKNVF [E12K], the protein stability index was 2.67.

As to QELEEEIKELYSNFCKHNGSKNVF [E12S], the protein stability index came out at 3.13.

With QELEEEIKELYRNFCKHNGSKNVF [E12R], the protein stability index amounted to 2.19.

As to QELEEEIKELYQNFCKHNGSKNVF [E12Q], the protein stability index was found to be 2.39.

With QELEEEIKELYMNFCKHNGSKNVF [E12M], the protein stability index turned out to be 2.41.

QELEEEIKELYFNFCKHNGSKNVF [E12F]: the protein stability index came to 2.56.

On to QELEEEIKELYGNFCKHNGSKNVF [E12G], for which the protein stability index came out at 3.27.

On to QELEEEIKELYPNFCKHNGSKNVF [E12P], for which the protein stability index was 3.31.

QELEEYIKELYENFCKHNGSKNVF [E6Y]: the protein stability index worked out at 2.37.

As to QELEETIKELYENFCKHNGSKNVF [E6T], the protein stability index came out at 2.86.

On to QELEEWIKELYENFCKHNGSKNVF [E6W], for which the protein stability index is 1.75.

On to QELEESIKELYENFCKHNGSKNVF [E6S], for which the protein stability index stood at 2.85.

As to QELEEVIKELYENFCKHNGSKNVF [E6V], the protein stability index was determined as 2.08.

QELEEPIKELYENFCKHNGSKNVF [E6P]: the protein stability index was 3.28.

QELEEQIKELYENFCKHNGSKNVF [E6Q]: the protein stability index came out at 3.18.

As to QELEERIKELYENFCKHNGSKNVF [E6R], the protein stability index was found to be 2.77.

As for QELEEEIKELYENFTKHNGSKNVF [C15T], the protein stability index amounted to 3.5.

On to QELEEEIKELYENFKKHNGSKNVF [C15K], for which the protein stability index is 3.49.

As for QELEEEIKELYENFYKHNGSKNVF [C15Y], the protein stability index worked out at 3.77.

As for QELEEEIKELYENFAKHNGSKNVF [C15A], the protein stability index worked out at 3.86.

As to QELEEEIKELYENFPKHNGSKNVF [C15P], the protein stability index was determined as 3.91.

On to QELEEEIKELYENFFKHNGSKNVF [C15F], for which the protein stability index came out at 3.03.

In the case of QELEEEIKELYENFNKHNGSKNVF [C15N], the protein stability index was found to be 3.97.

Consider QELEEEIKELYENFDKHNGSKNVF [C15D], for which the protein stability index was 4.08.

On to QELEEEIKELYENFLKHNGSKNVF [C15L], for which the protein stability index turned out to be 1.97.

For the variant QELEEEIKELYENFEKHNGSKNVF [C15E], the protein stability index was 3.86.
